The series deals with the molecule itself. Put plainly: AUC.

As a reminder, the stoichiometry N is the number of molecules, sites or subunits per partner or assembly.

B1: UDS1-His6 (natural protein, Aspergillus nidulans, UniProt Q5B1I5 1-941, looked up)
chain: MNGFDFRSSQSSYGDPRHFSDASYGVPQPPPTKVLLDGYRDALGPANAEKSLYNSANPTSHPRRSIPPSANDPVAMYLLTETAMGDSVNYEILSVEEVEGLKKELRVLSNRMNAAKRKLALELKLRDAAMSLSRLHHKEEHDVDGSGRNEPNTDKTNEELVHINRKCEELSMDIWYSERKVQEIQKRLLEHTAGVLQLTHKGLKKNSKNGMPHTPESLSSSNTVDDFDDRSLYKASDPLDGPETYETRAPPPDNLAHDNSMQETERKLESMSSRLRDMLLQLDPDSEFSQIPQPSTSGDSFEPSAMIDAHLRYIENGISALGSLPKADMASQSLDPVSEQQLVEMRTQLLSIMENPGLPRAQTLPTAPDPTDSDLAKHLTFLSVGINGLESRVEKLLEQKSILTTQIQQQRELNSKSDAERDAKIADLIEQLAHLRKELELAEREGQQSKEDHDLTLKELEDVRRELLESRETHSSRDLGNSKNEAQQHAEAEIARLQSVIQEIQQEKDEHCEAHRRAEAEIDRLQAVIHQIQQEKDEHREAHERAEAETTRLQTIVEEVQQEKDEQHEAHGRAVAEVTRLQDIIQKIEQEKIERHEADERAEAEIVRLRDTIREIQQEKEEHHEARVRLEGEVARLQGVIGQLQESAESRESAEQQVAQLEETIHQIRHDADIRIKEATDSRAQADAKIAQLEGAMNEVRESLESQLKEATEARNNAEENSTRLQKELTELERDVVRAQTELTMVKAELDGAYGTRAQRAAEAAADPALFHELDELKARNFEMAEELAALKAGKPGSGDVHNRVETLERELRETVDDYEAMTKASIEFEKERERFESMIDSLRDRCEQLETQLNEERISWMGANNSASSMGRDGPYETTSTMVLKNEFKKMMRDTRAENMKILKAEQEERRKLEAILRNLKREQANLSGKSNISRTVTAS
B1: the “stoichiometry N” value turned out to be 2.

The record behind these values is article PMC9213775 (iScience, 2022).
